From patent US20240132626A1 (Eli Lilly, published 2024)

Tests used:
Test in all cases: SPR, captured via anti-human kappa, soluble ECD injected
[1] = biological target: T1, Soluble human cMet extracellular domain (ECD) protein (human, UniProt P08581 25-932)
T1 construct: extracellular domain; His-tagged

[2] = biological target: T2, Soluble human EGFR ECD protein (human, UniProt P00533 25-645)
T2 construct: extracellular domain; His-tagged

[3] = biological target: T3, Soluble human HER-2 extracellular domain (ECD) protein (human, UniProt P04626 23-652)
T3 construct: extracellular domain; His-tagged

T1 sequence (P08581 25-932): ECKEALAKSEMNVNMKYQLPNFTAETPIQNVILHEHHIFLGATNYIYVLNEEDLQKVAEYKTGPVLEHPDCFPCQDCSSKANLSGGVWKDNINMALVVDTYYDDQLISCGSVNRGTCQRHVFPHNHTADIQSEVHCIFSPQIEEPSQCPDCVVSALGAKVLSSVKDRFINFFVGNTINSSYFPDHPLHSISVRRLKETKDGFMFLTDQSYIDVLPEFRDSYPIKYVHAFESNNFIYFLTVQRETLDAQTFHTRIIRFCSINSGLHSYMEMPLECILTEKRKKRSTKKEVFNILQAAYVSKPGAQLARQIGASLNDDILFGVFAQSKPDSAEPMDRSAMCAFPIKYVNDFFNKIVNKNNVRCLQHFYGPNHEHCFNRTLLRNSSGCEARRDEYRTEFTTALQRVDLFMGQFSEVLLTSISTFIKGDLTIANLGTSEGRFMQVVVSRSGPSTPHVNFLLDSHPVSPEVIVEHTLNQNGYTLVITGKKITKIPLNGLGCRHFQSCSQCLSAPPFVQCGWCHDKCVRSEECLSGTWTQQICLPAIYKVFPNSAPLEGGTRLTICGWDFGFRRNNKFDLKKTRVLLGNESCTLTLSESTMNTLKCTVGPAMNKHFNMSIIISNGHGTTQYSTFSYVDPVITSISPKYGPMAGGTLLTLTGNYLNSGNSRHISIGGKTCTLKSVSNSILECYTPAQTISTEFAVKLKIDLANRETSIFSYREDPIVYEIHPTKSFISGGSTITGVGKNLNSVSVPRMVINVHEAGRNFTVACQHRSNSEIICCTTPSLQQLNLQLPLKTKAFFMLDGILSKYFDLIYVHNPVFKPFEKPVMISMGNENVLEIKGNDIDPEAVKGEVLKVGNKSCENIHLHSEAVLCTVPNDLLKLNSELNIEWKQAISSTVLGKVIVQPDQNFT

Binder	Kd [1] [pM]	koff [1] [s⁻¹]	kon [1] [M⁻¹ s⁻¹]	Kd [2] [pM]	koff [2] [s⁻¹]	kon [2] [M⁻¹ s⁻¹]	Kd [3] [pM]	koff [3] [s⁻¹]	kon [3] [M⁻¹ s⁻¹]
HER-2 X EGFR X cMet TsAb_N_L (other, Trispecific IgG-Fab antibody; the anti-cMet Fab is fused N-terminally through its light chain) heavy 1: DIQMTQSPSSLSASVGDRVTITCKSSQSLLYTSSQKNYLAWYQQKPGDAPKLLIYWASTRESGVPSRFSGSGSGTDFTLTISSLQPEDFATYYCQQYYAYPWTFGQGTKVEIKRTVAAPSVFIFPPSDKQLKSGTARVVCLLNNFYPREAKVQWKVDNALQSGNSQESVTEQDSKDSTYSLISTLTLSKADYEKHKVYACEVTHQGLSSPVTKSFNRGECGGGGSGGGGSGGGGSGGGGSGGGGSQVQLVQSGAEVKKPGASVKVSCKASGYTFTSHWMHWVRYAPGQGLEWIGEFNPSNGRTNYNEKFKSKATMTVDTSTNTAYMELSSLRSEDTAVYYCASRDYDYDGRYFDYWGQGTLVTVSSASTKGPSVFPLAPCSKSTSGGTAALGCLVKDYFPEPVTVSWNSGALTSGVHTFPAVLQSSGLYSLSSVVTVPSSSLGTQTYICNVNHKPSNTKVDKKVEPDSGDKTHTCPPCPAPEAAGGPSVFLFPPKPKDTLMISRTPEVTCVVVDVSHEDPEVKFNWYVDGVEVHNAKTKPREEQYQSTYRVVSVLTVLHQDWLNGKEYKCKVSNKALPAPIEKTISKAKGQPREPQVYTLPPSRGDMTKNQVQLTCLVKGFYPSDIAVEWESNGQPENNYKTTPPVLDSDGSFFLASKLTVDKSRWQQGNVFSCSVMHEALHNHYTQKSLSLSPG light 1: DIQMTQSPSSLSASVGDRVTITCSASSSVTYMYWYQRKPGKAPKLLIYDTSNLASGVPSRFSGSGSGTDYTFTISSLQPEDIATYYCQQWSSHIFTFGQGTKVEIKRTVAAPSVFIFPPSKEQLKSGTASVVCLLNNFYPREAKVQWKVDNALQSGNSQESVTEQDSKDSTYSLSSTLTLSKADYEKHKVYACEVTHQGLSSPVTKSFNRGEC heavy 2: EVQLVESGGGLVQPGGSLRLSCAASGFTFTDYTMDWVRKAPGKGLEWVADVNPNSGGSIYNQEFKGRFTLSVDRSKNTLYLQMNSLRAEDTAVYYCARNLGPSFYFDYWGQGTLVTVSSASTKGPSVFPLAPSSKSTSGGTAALGCLVKDYFPEPVTVSWNSGALTSGVATGPAVLQSSGLYSLSSVVTVPSSSLGTQTYICNVNHKPSNTKVDKKVEPKSCDKTHTCPPCPAPEAAGGPSVFLFPPKPKDTLMISRTPEVTCVVVDVSHEDPEVKFNWYVDGVEVHNAKTKPREEQYQSTYRVVSVLTVLHQDWLNGKEYKCKVSNKALPAPIEKTISKAKGQPREPQVSTLPPSREEMTKNQVSLMCLVYGFYPSDIAVEWESNGQPENNYKTTPPVLDSDGSFFLYSVLTVDKSRWQQGNVFSCSVMHEALHNHYTQKSLSLSPG light 2: RIQMTQSPSSLSASVGDRVTITCKASQDVSIGVAWYQDKPGKAPKLLIYSASYRYTGVPSRFSGSGSGTDFTLTISSLQPEDFATYYCQQYYIYPYTFGQGTKVEIKGQPKAAPSVTLFPPSSEELQANKATLVCYISDFYPGAVTVAWKADSSPVKAGVETTTPSKQSNNKYAAWSYLSLTPEQWKSHRSYSCQVTHEGSTVEKTVAPTEC EVQLVESGGGLVQPGGSLRLSCAASGYTFTSYWLHWVRQAPGKGLEWVGMIDPSNSDTRFNPNFKDRFTISADTSKNTAYLQMNSLRAEDTAVYYCATYRSYVTPLDYWGRGTLVTVSSASTKGPSVFPLAPSSKSTSGGTAALGCLVADYFPEPVTVSWNSGALTSGVHTFPAVLQSSGLYSLSSVVTVPSSSLGTQTYICNVNHKPSNTKVDERVEPKSC	360	0.00016	440000	13000	0.009	720000	900	0.00024	260000
HER-2 X EGFR X cMet TsAb_HHL (other, Tandem Fab trispecific antibody without Fc) heavy: EVQLVESGGGLVQPGGSLRLSCAASGFTFTDYTMDWVRKAPGKGLEWVADVNPNSGGSIYNQEFKGRFTLSVDRSKNTLYLQMNSLRAEDTAVYYCARNLGPSFYFDYWGQGTLVTVSSASTKGPSVFPLAPSSKSTSGGTAALGCLVKDYFPEPVTVSWNSGALTSGVATGPAVLQSSGLYSLSSVVTVPSSSLGTQTYICNVNHKPSNTKVDKKVEPKSCGGGGSGGGGSGGGGSQVQLVQSGAEVKKPGASVKVSCKASGYTFTSHWMHWVRYAPGQGLEWIGEFNPSNGRTNYNEKFKSKATMTVDTSTNTAYMELSSLRSEDTAVYYCASRDYDYDGRYFDYWGQGTLVTVSSASTKGPSVFPLAPCSKSTSGGTAALGCLVKDYFPEPVTVSWNSGALTSGVHTFPAVLQSSGLYSLSSVVTVPSSSLGTQTYICNVNHKPSNTKVDKKVEPDSGGGGGSGGGGSGGGGSDIQMTQSPSSLSASVGDRVTITCKSSQSLLYTSSQKNYLAWYQQKPGDAPKLLIYWASTRESGVPSRFSGSGSGTDFTLTISSLQPEDFATYYCQQYYAYPWTFGQGTKVEIKRTVAAPSVFIFPPSDKQLKSGTARVVCLLNNFYPREAKVQWKVDNALQSGNSQESVTEQDSKDSTYSLISTLTLSKADYEKHKVYACEVTHQGLSSPVTKSFNRGECHHHHHHHH light 1: RIQMTQSPSSLSASVGDRVTITCKASQDVSIGVAWYQDKPGKAPKLLIYSASYRYTGVPSRFSGSGSGTDFTLTISSLQPEDFATYYCQQYYIYPYTFGQGTKVEIKGQPKAAPSVTLFPPSSEELQANKATLVCYISDFYPGAVTVAWKADSSPVKAGVETTTPSKQSNNKYAAWSYLSLTPEQWKSHRSYSCQVTHEGSTVEKTVAPTEC light 2: DIQMTQSPSSLSASVGDRVTITCSASSSVTYMYWYQRKPGKAPKLLIYDTSNLASGVPSRFSGSGSGTDYTFTISSLQPEDIATYYCQQWSSHIFTFGQGTKVEIKRTVAAPSVFIFPPSKEQLKSGTASVVCLLNNFYPREAKVQWKVDNALQSGNSQESVTEQDSKDSTYSLSSTLTLSKADYEKHKVYACEVTHQGLSSPVTKSFNRGEC EVQLVESGGGLVQPGGSLRLSCAASGYTFTSYWLHWVRQAPGKGLEWVGMIDPSNSDTRFNPNFKDRFTISADTSKNTAYLQMNSLRAEDTAVYYCATYRSYVTPLDYWGRGTLVTVSSASTKGPSVFPLAPSSKSTSGGTAALGCLVADYFPEPVTVSWNSGALTSGVHTFPAVLQSSGLYSLSSVVTVPSSSLGTQTYICNVNHKPSNTKVDERVEPKSC	540	0.00014	260000	10000	0.0058	560000	700	0.00021	300000
HER-2 X EGFR X cMet TsAb_HHH (other, Tandem Fab trispecific antibody without Fc) heavy: EVQLVESGGGLVQPGGSLRLSCAASGFTFTDYTMDWVRKAPGKGLEWVADVNPNSGGSIYNQEFKGRFTLSVDRSKNTLYLQMNSLRAEDTAVYYCARNLGPSFYFDYWGQGTLVTVSSASTKGPSVFPLAPSSKSTSGGTAALGCLVKDYFPEPVTVSWNSGALTSGVATGPAVLQSSGLYSLSSVVTVPSSSLGTQTYICNVNHKPSNTKVDKKVEPKSCGGGGSGGGGSGGGGSQVQLVQSGAEVKKPGASVKVSCKASGYTFTSHWMHWVRYAPGQGLEWIGEFNPSNGRTNYNEKFKSKATMTVDTSTNTAYMELSSLRSEDTAVYYCASRDYDYDGRYFDYWGQGTLVTVSSASTKGPSVFPLAPCSKSTSGGTAALGCLVKDYFPEPVTVSWNSGALTSGVHTFPAVLQSSGLYSLSSVVTVPSSSLGTQTYICNVNHKPSNTKVDKKVEPDSGGGGGSGGGGSGGGGSEVQLVESGGGLVQPGGSLRLSCAASGYTFTSYWLHWVRQAPGKGLEWVGMIDPSNSDTRFNPNFKDRFTISADTSKNTAYLQMNSLRAEDTAVYYCATYRSYVTPLDYWGRGTLVTVSSASTKGPSVFPLAPSSKSTSGGTAALGCLVADYFPEPVTVSWNSGALTSGVHTFPAVLQSSGLYSLSSVVTVPSSSLGTQTYICNVNHKPSNTKVDERVEPKSCHHHHHHHH light 1: RIQMTQSPSSLSASVGDRVTITCKASQDVSIGVAWYQDKPGKAPKLLIYSASYRYTGVPSRFSGSGSGTDFTLTISSLQPEDFATYYCQQYYIYPYTFGQGTKVEIKGQPKAAPSVTLFPPSSEELQANKATLVCYISDFYPGAVTVAWKADSSPVKAGVETTTPSKQSNNKYAAWSYLSLTPEQWKSHRSYSCQVTHEGSTVEKTVAPTEC light 2: DIQMTQSPSSLSASVGDRVTITCSASSSVTYMYWYQRKPGKAPKLLIYDTSNLASGVPSRFSGSGSGTDYTFTISSLQPEDIATYYCQQWSSHIFTFGQGTKVEIKRTVAAPSVFIFPPSKEQLKSGTASVVCLLNNFYPREAKVQWKVDNALQSGNSQESVTEQDSKDSTYSLSSTLTLSKADYEKHKVYACEVTHQGLSSPVTKSFNRGEC light 3: DIQMTQSPSSLSASVGDRVTITCKSSQSLLYTSSQKNYLAWYQQKPGDAPKLLIYWASTRESGVPSRFSGSGSGTDFTLTISSLQPEDFATYYCQQYYAYPWTFGQGTKVEIKRTVAAPSVFIFPPSDKQLKSGTARVVCLLNNFYPREAKVQWKVDNALQSGNSQESVTEQDSKDSTYSLISTLTLSKADYEKHKVYACEVTHQGLSSPVTKSFNRGEC	770	0.00013	170000	15000	0.0055	360000	800	0.00022	260000
